T1: PpERF17 (Prunus persica (peach), cv. …, UniProt M5W9J0 1-215)
T1 sequence: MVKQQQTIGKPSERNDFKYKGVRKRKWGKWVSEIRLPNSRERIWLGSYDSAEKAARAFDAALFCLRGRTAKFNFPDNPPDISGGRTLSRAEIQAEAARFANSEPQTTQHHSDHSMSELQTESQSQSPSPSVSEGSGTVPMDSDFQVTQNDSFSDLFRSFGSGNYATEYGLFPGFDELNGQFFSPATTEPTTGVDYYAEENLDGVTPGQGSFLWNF

B1: PpERF17-PpGAD probe (dsDNA)
DNA 1: CATAAGGTCGGAAGGCACCGTCCATGTTCCAACTTGG
DNA 2: CCAAGTTGGAACATGGACGGTGCCTTCCGACCTTATG
B2: PpERF17-PpAOS probe (dsDNA)
DNA 1: ATGGTTCATGTACCCCACCGTCTTCACACTCACCTTC
DNA 2: GAAGGTGAGTGTGAAGACGGTGGGGTACATGAACCAT
B3: PpERF17-PpGAD mutant probe (dsDNA)
DNA 1: CATAAAAAAAAAAGGTTTTTTTTTGTTCCAACTTGG
DNA 2: CCAAGTTGGAACAAAAAAAAAACCTTTTTTTTTATG
B4: PpERF17-PpOPR3 probe (dsDNA)
DNA 1: TAGAAACCAAAACGACACCGGCCATAAATAAATCCGC
DNA 2: GCGGATTTATTTATGGCCGGTGTCGTTTTGGTTTCTA
B5: PpERF17-Pp13S-LOX probe (dsDNA)
DNA 1: TCTTAAAAACGTGTGGACGGTGAGATCAACAGTACCC
DNA 2: GGGTACTGTTGATCTCACCGTCCACACGTTTTTAAGA
B6: PpERF17-PpAOS mutant probe (dsDNA)
DNA 1: ATGGTTCATGTACCCTTTTTTTTTCACACTCACCTTC
DNA 2: GAAGGTGAGTGTGAAAAAAAAAGGGTACATGAACCAT
B7: PpERF17-Pp13S-LOX mutant probe (dsDNA)
DNA 1: TCTTAAAAACGTGAAAAAAAAAAGATCAACAGTACCC
DNA 2: GGGTACTGTTGATCTTTTTTTTTTCACGTTTTTAAGA
B8: PpERF17-PpOPR3 mutant probe (dsDNA)
DNA 1: TAGAAACCAAAACGATTTTTTTTTTAAATAAATCCGC
DNA 2: GCGGATTTATTTAAAAAAAAAATCGTTTTGGTTTCTA

Tests used:
[1] = molecular target: T1, PpERF17; assay: EMSA; cold probe 50x/500x competes; Chemiluminescent EMSA Kit (Beyotime); buffer, salt, pH and temperature not stated; details: protein: recombinant; tags: GST (N-terminal, pGEX-4T-1); label: biotin; blunt
[2] = molecular target: T1, PpERF17; assay: EMSA; Chemiluminescent EMSA Kit (Beyotime); buffer, salt, pH and temperature not stated; details: protein: recombinant, tags: GST (N-terminal, pGEX-4T-1), label: biotin

| Binder | binding result [1] | binding result ([2]; blunt) | also measured |
| --- | --- | --- | --- |
| B1 | binds |  |  |
| B2 | binds |  |  |
| B3 |  |  | binding result [2]: no binding |
| B4 | binds |  |  |
| B5 | binds |  |  |
| B6 |  | no binding |  |
| B7 |  | no binding |  |
| B8 |  | no binding |  |
